Earlier results on 1 substance are cited in article PMC6181577.

This data set has as its target UBQLN2 UBA (Homo sapiens) (UniProt Q9UHD9).

Sequence of UBQLN2 UBL (Q9UHD9 33-107): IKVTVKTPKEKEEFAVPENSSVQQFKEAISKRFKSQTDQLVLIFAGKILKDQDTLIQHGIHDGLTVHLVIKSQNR
Sequence of UBQLN2 UBA (Homo sapiens) (Q9UHD9 578-624): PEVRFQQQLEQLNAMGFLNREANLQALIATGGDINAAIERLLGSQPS

UBQLN2 UBL (from UniProt Q9UHD9): the Kd is 175 µM.

What is called Kd is a measure of binding affinity in units of concentration.
